The text below walks through data of US20220348688A1 (PROMAB BIOTECHNOLOGIES, published 2022).

Assay [1] concerns the target T1, CD3 epsilon chain (CD3e) (human, UniProt P07766 23-207).
T1 construct: whole, on cells; also called CD3 antigen
The experiment in a line: FACS on CD3-positive T cells.
From the text: The allophycocyanin (APC)-labeled anti-CD3 (eBioscience, San Diego, Calif.) antibody was used for FACS analysis using FACSCalibur (BD Biosciences).
CD3-positive T cells were used for testing binding to CD3.

For assay [2], the target named is T1, CD3 epsilon chain (CD3e). The experiment in a line: FACS.

T1 sequence (P07766 23-207): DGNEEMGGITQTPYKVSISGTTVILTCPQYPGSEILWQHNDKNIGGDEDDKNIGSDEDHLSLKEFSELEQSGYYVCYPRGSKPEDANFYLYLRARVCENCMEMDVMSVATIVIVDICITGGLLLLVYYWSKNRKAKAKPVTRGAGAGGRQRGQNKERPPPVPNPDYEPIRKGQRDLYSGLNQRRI

B1: PLAP h4-CD3e bispecific antibody (FIG. 1A structure) (bispecific antibody)
light: DIQMTQSPSSLSASVGDRVTITCRASENIYSYVAWYQQKPGKAPKLLIYNAKSLASGVPSRFSGSGSGTDFTLTISSLQPEDFATYYCQHHYVSPWTFGGGTKLEIKRTVAAPSVFIFPPSDEQLKSGTASVVCLLNNFYPREAKVQWKVDNALQSGNSQESVTEQDSKDSTYSLSSTLTLSKADYEKHKVYACEVTHQGLSSPVTKSFNRGEC
chain: QAVVTQEPSLTVSPGGTVTLTCGSSTGAVTTSNYANWVQEKPGQAFRGLIGGTNKRAPGTPARFSGSLLGGKAALTLSGAQPEDEAEYYCALWYSNLWVFGGGTKLTVLSSASTKGPSVFPLAPSSKSTSGGTAALGCLVKDYFPEPVTVSWNSGALTSGVHTFPAVLQSSGLYSLSSVVTVPSSSLGTQTYICNVNHKPSNTKVDKKVEPKSC
heavy 1: not shown
heavy 2: QVQLQESGPGLVKPSETLSLTCTVSGGSITSYGVSWIRQPPGKGLEWIGVIWEDGSTNYHSALISRVTISVDTSKNQFSLKLSSVTAADTAVYYCARPHYGSSYVGAMEYWGAGTTVTVSSTKGPSVFPLAPSSKSTSGGTAALGCLVKDYFPEPVTVSWNSGALTSGVHTFPAVLQSSGLYSLSSVVTVPSSSLGTQTYICNVNHKPSNTKVDKKVEPKSCDKTHTCPPCPAPEAAGGPSVFLFPPKPKDTLMISRTPEVTCVVVDVSHEDPEVKFNWYVDGVEVHNAKTKPREEQYNSTYRVVSVLTVLHQDWLNGKEYKCKVSNKALGAPIEKTISKAKGQPREPQVCTLPPSRDELTKNQVSLSCAVKGFYPSDIAVEWESNGQPENNYKTTPPVLDSDGSFFLVSKLTVDKSRWQQGNVFSCSVMHEALHNHYTQKSLSLSPGK
notes: Two PLAP Fab arms and one CD3e crossover Fab; knob-into-hole human IgG Fc with P329G, L234A, L235A; also called PLAP h4-CD3 antibody; PLAP h4-Cd3 antibody
On to B1, for which, in the assay with CD3 epsilon chain (CD3e) [1], the binding result is “binds”.

B2: PLAP h4-CD3e bivalent antibody (PBM0015), FIG. 1B structure (bispecific antibody)
light: B1 light
heavy 1: not shown
heavy 2: B1 heavy 2
notes: Two PLAP Fab arms; the CD3 scFv is attached to the C-terminal end of CH3 of the knob chain; also called bivalent PLAP h4-CD3 Ab; bivalent humanized PLAPh4-CD3 antibody
Turning to B2, the binding result in the assay with CD3 epsilon chain (CD3e) [2] was “binds”.
